The assay has as its target Flu-m158-66-TCR, on Jurkat T cells.

Substance “Influenza M158-66 ([…]) presented by HLA-A0201, single-chain trimer of pMHC displayed on the lentiviral surface (from UniProt P61769 21-119) (peptide-MHC)” gave a percent of T cells GFP+ greater than 87%.

The values are drawn from US20250027073A1.
